In patent publication US20120115870A1, “CONTROL OF INTRAOCULAR PRESSURE USING ALK5 MODULATION AGENTS” (ALCON RESEARCH, LTD., priority 2005, published 2012):

Legend:
[1] = tested on: TGF-β2-treated perfused human anterior segment model; test: Perfusate fibronectin in TGF-β2-treated perfused human anterior segment model (FIG. 2); details: human anterior segments treated with TGF-β2 and compound vs TGF-β2 only
Experimental: Human ocular perfusion organ culture was performed as described in available literature. [Tschumper et al., Curr Eye Res., 1990; Vol. 9:363-369; Clark et al., Invest Ophthalmol Vis Sci., 1995; Vol. 36:478-489; Pang et al., J Glaucoma, 2000; Vol. 9:468-479; Pang et al., Invest Ophthalmol Vis Sci., 2003; Vol. 44:3502-3510]. Briefly, anterior segments were dissected and mounted into custom Plexiglas culture chambers, then perfused with serum-free Dulbecco's modified Eagle's medium. IOP was monitored every 5 seconds and averaged each hour. Perfused tissue was allowed to equilibrate at 37° C. and 5% CO2 until a stable baseline IOP was achieved, typically 2-4 days; tissues with unstable IOP were discarded. Stable tissues were then further perfused with media containing the test compound(s) as indicated and changes in IOP were recorded. Eluate samples were collected daily for ELISA analysis of fibronectin and PAI-1 content. Tissues were fixed and evaluated for viability/morphology by light and electron microscopy at termination of each study. Data from unacceptable tissues were excluded from results. Criteria for “unacceptable” tissues included findings such as excess debris in the TM region, denudation of TM beams, loss of TM and/or Schlemm's canal cells, and breaks or collapse of Schlemm's canal. […]

[2] = tested on: GTM-3 transformed human TM cells; test: TGF-β2-mediated fibronectin and PAI-1 in human TM cell culture supernatants, ELISA (FIG. 3); assay type: cell-based; details: human TM cell cultures, 24 h
Experimental: (§1) Generation and characterization of the GTM-3 transformed cell line has been previously described (Pang et al., Curr Eye Res., 1994; Vol. 13:51-63). Briefly, maintenance growth medium consisted of Dulbecco's modified Eagle's medium with Glutamax I (Gibco/BRL, Grand Island, N.Y.) supplemented with 10% fetal bovine serum (Hyclone, Logan, Utah) and 50 μg/mL gentamicin (Gibco/BRL). For assay, cultures were trypsinized and seeded into 24-well plates (Corning Costar, Acton, Mass.) and allowed to grow until monolayers reached approximately 90% confluence. Culture medium was then replaced with 0.25 mL serum- and antibiotic-free medium containing the appropriate test compound(s). Cells were incubated 24 h, at 5% CO2 and 37° C. Aliquots of culture supernatants were then assayed for fibronectin and/or PAI-1 content by ELISA.

[3] = tested on: GTM-3 transformed human TM cells; test: Pro-collagen type I C-peptide (PIP) in human TM cell cultures, ELISA (FIG. 4); assay type: cell-based; details: 24 h
Experimental: For this experiment, cultured transformed GTM-3 cells (Pang et al., Curr Eye Res., 1994; Vol. 13:51-63) were grown in a growth medium consisting of Dulbecco's modified Eagle's medium with Glutamax I (Gibco/Invitrogen, Grand Island, N.Y.) supplemented with 10% fetal bovine serum (Hyclone, Logan, Utah) and 50 μg/mL gentamicin (Gibco/Invitrogen). For assay, cultures were enzymatically-dissociated (TrypLE Express; Gibco/Invitrogen) then seeded into 24-well plates (Corning Costar, Acton, Mass.) and allowed to grow until monolayers reached approximately 90-95% confluence. Culture medium was then replaced with 0.25 mL serum- and antibiotic-free medium containing the appropriate test compound(s). Cells were incubated 24 h, at 5% CO2 and 37° C. Aliquots of culture supernatants were then assayed using an ELISA kit for procollagen Type I C-peptide (TaKaRa Bio, Shiga, Japan).
Collagens are synthesized as pro-collagens, most of which contain additional peptide sequences called “propeptides”. Propeptides are located at both the N- and C-terminal ends of the molecules. These propeptides serve to facilitate formation of the mature collagen's triple helical structure from pro-collagens within the endoplasmic reticulum. […]

[4] = molecular target: T1, ALK5 (Homo sapiens, UniProt P36897); details: Brit J Pharmacol. 2005; 145:166-177; read-out: IC50, inhibition of phosphorylation of ALK5; cited from earlier work
T1 sequence (P36897 34-503): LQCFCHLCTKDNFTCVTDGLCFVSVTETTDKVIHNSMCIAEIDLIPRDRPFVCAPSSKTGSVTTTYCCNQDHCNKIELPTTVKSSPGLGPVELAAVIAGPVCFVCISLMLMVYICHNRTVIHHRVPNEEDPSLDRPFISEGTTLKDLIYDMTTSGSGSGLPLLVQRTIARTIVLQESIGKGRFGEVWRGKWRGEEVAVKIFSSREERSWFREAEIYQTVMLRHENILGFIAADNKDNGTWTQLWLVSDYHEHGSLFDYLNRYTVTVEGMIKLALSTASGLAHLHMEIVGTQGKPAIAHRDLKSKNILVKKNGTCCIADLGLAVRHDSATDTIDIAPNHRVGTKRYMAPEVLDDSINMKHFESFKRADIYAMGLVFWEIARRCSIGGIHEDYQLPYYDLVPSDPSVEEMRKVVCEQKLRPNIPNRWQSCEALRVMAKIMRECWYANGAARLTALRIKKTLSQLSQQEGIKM

[5] = molecular target: TGF-β Type II receptors (Homo sapiens, UniProt P37173); details: Brit J Pharmacol. 2005; 145:166-177; read-out: IC50, phosphorylation of TGF-β Type II receptors; cited from earlier work
[6] = molecular target: p38 MAPK (Homo sapiens, UniProt Q16539); details: Brit J Pharmacol. 2005; 145:166-177; read-out: IC50, phosphorylation of p38 MAPK; cited from earlier work
[7] = tested on: perfused human anterior segment model; test: Perfused human anterior segment model, IOP (FIG. 1); details: TGF-β2 infused at 5 ng/mL
Experimental: FIG. 1 is a graph showing the effect of infused TGF-β2 on a perfused human anterior segment model. All donor eyes used in this model were used according to the provisions of the Declaration of Helsinki for research involving human tissue, and were used within 24 hours post-mortem. No donors were known to have a history of glaucoma or other ocular disorder.
Human ocular perfusion organ culture was performed as described in available literature. [Tschumper et al., Curr Eye Res., 1990; Vol. 9:363-369; Clark et al., Invest Ophthalmol Vis Sci., 1995; Vol. 36:478-489; Pang et al., J Glaucoma, 2000; Vol. 9:468-479; Pang et al., Invest Ophthalmol Vis Sci., 2003; Vol. 44:3502-3510]. Briefly, anterior segments were dissected and mounted into custom Plexiglas culture chambers, then perfused with serum-free Dulbecco's modified Eagle's medium. IOP was monitored every 5 seconds and averaged each hour. Perfused tissue was allowed to equilibrate at 37° C. and 5% CO2 until a stable baseline IOP was achieved, typically 2-4 days; tissues with unstable IOP were discarded. Stable tissues were then further perfused with media containing the test compound(s) as indicated and changes in IOP were recorded. Eluate samples were collected daily for ELISA analysis of fibronectin and PAI-1 content. Tissues were fixed and evaluated for viability/morphology by light and electron microscopy at termination of each study. […]

[8] = tested on: GTM-3; test: Effect of TGF-β2 on HTM cell secretion of fibronectin and PAI-1; assay type: cell-based, human; details: 24 hours
Experimental: as §1
(§2) TABLE 1, shown below, summarizes the results of a study measuring the effect of TGF-β2 on ECM-related protein levels (fibronectin, PAI-1) in cultured TM cells of various strains. TGF-β2 was present in the cultures at a concentration of 5 ng/mL, and protein levels (mean±s.e.m.) were measured after 24 hours.

[9] = tested on: GTM29-01; test: as above; assay type: cell-based, human; details: 24 hours
Experimental: as §1, §2

[10] = tested on: GTM686-03; test: as above; assay type: cell-based, human; details: 24 hours
Experimental: as §1, §2

[11] = tested on: GTM730-03; test: as above; assay type: cell-based, human; details: 24 hours
Experimental: as §1, §2

[12] = tested on: NTM25-91; test: as above; assay type: cell-based, human; details: 24 hours
Experimental: as §1, §2

[13] = tested on: NTM35; test: as above; assay type: cell-based, human; details: 24 hours
Experimental: as §1, §2

[14] = tested on: NTM553-02; test: as above; assay type: cell-based, human; details: 24 hours
Experimental: as §1, §2

[15] = tested on: NTM875-03; test: as above; assay type: cell-based, human; details: 24 hours
Experimental: as §1, §2

[16] = tested on: NTM974-03; test: as above; assay type: cell-based, human; details: 24 hours
Experimental: as §1, §2

[17] = tested on: SGTM1233-99; test: as above; assay type: cell-based, human; details: 24 hours
Experimental: as §1, §2

[18] = tested on: SGTM2697; test: as above; assay type: cell-based, human; details: 24 hours
Experimental: as §1, §2

TGF-β Type II receptors, sequence (P37173 23-567): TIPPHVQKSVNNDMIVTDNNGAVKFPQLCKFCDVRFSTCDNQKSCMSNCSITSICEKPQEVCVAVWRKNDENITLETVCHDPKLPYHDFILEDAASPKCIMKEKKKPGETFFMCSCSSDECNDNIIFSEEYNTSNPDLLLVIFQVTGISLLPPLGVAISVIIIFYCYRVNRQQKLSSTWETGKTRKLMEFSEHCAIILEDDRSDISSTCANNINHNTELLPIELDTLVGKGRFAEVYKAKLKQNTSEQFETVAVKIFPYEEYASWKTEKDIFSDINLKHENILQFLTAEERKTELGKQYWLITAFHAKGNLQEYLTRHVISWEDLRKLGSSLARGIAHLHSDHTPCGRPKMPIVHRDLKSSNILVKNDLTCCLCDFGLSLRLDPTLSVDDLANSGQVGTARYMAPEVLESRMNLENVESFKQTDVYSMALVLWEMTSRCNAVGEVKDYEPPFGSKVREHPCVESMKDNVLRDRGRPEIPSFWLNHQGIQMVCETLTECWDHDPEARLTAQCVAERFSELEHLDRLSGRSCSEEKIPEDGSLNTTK
p38 MAPK, sequence (Q16539 whole entry, the tested form may be a part): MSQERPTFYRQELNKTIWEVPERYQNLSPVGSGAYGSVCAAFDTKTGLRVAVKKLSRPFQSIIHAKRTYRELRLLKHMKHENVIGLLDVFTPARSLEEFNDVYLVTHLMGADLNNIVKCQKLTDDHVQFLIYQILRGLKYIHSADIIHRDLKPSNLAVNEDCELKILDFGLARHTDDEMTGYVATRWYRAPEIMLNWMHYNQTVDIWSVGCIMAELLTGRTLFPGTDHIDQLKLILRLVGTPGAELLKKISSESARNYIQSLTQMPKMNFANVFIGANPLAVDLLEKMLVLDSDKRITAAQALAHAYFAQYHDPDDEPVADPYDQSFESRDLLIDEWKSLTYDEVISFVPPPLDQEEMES

NC(=O)c1ccc(-c2nc(-c3ccc4c(c3)OCO4)c(-c3ccccn3)[nH]2)cc1 [Compound 1]
TGF-β2-mediated increase in perfusate fibronectin content [1]: completely antagonized
Inhibition of TGF-β2-mediated increase in PAI-1 content in supernatants [2]: dose-dependent inhibition
Inhibition of TGF-β2-mediated increase in fibronectin content in supernatants [2]: dose-dependent inhibition
TGF-β2-dependent PIP elevation ([3]; cultures treated with both TGF-β2 and compound): eliminated

c1ccc(-c2cc(-c3cn[nH]c3-c3ccccn3)ccn2)cc1 [GW-6604]
IC50 [4]: ~0.14 µM
IC50 [5]: 10 µM
IC50 [6]: 9.5 µM

c1ccc(-c2n[nH]cc2-c2ccnc3ccccc23)nc1 [Compound 2]
Inhibition of TGF-β2-mediated increase in PAI-1 content in supernatants [2]: dose-dependent inhibition
Inhibition of TGF-β2-mediated increase in fibronectin content in supernatants [2]: dose-dependent inhibition

B1: TGF-β2: transforming growth factor-beta isoform 2, a cytokine acting on ALK5 (Type 1 TGF-β receptor) (protein, UniProt P61812 303-414, looked up)
Transforming growth factor …: ALDAAYCFRNVQDNCCLRPLYIDFKRDLGWKWIHEPKGYNANFCAGACPYLWSSDTQHSRVLSLYNTINPEASASPCCVSQDLEPLTILYYIGKTPKIEQLSNMIVKSCKCS
IOP relative to control ([7]; after 72 hours): almost double
IOP compared to control ([7]; within 24 hours): elevated IOP
PIP levels compared to vehicle ([3]; TGF-β2-treated cultures, both study replicates): greatly elevated
Fibronectin Fold Increase ([8]; TGF-β2 5 ng/mL vs control): 5.4
PAI-1 Fold Increase ([8]; TGF-β2 5 ng/mL vs control): 19.4
Fibronectin ([8]; TGF-β2 5 ng/mL, mean±s.e.m.): 16.7 ± 1^ μg/well
PAI-1 ([8]; TGF-β2 5 ng/mL, mean±s.e.m.): 266 ± 8 ng/well
Fibronectin Fold Increase ([9]; TGF-β2 5 ng/mL vs control): 9.4
PAI-1 Fold Increase ([9]; TGF-β2 5 ng/mL vs control): 3.9
Fibronectin ([9]; TGF-β2 5 ng/mL, mean±s.e.m.): 9.4 ± 2.6 μg/well
PAI-1 ([9]; TGF-β2 5 ng/mL, mean±s.e.m.): 260.5 ± 13.6 ng/well
Fibronectin Fold Increase ([10]; TGF-β2 5 ng/mL vs control): 126
PAI-1 Fold Increase ([10]; TGF-β2 5 ng/mL vs control): 2.5
Fibronectin ([10]; TGF-β2 5 ng/mL, mean±s.e.m.): 25.2 ± 9.6 μg/well
PAI-1 ([10]; TGF-β2 5 ng/mL, mean±s.e.m.): 258.3 ± 28.1 ng/well
Fibronectin Fold Increase ([11]; TGF-β2 5 ng/mL vs control): 32.8
PAI-1 Fold Increase ([11]; TGF-β2 5 ng/mL vs control): 2.2
Fibronectin ([11]; TGF-β2 5 ng/mL, mean±s.e.m.): 26.2 ± 1.6 μg/well
PAI-1 ([11]; TGF-β2 5 ng/mL, mean±s.e.m.): 268.8 ± 3.9 ng/well
Fibronectin Fold Increase ([12]; TGF-β2 5 ng/mL vs control): 6.2
Fibronectin ([12]; TGF-β2 5 ng/mL, mean±s.e.m.): 19.3 ± 1.5 μg/well
Fibronectin Fold Increase ([13]; TGF-β2 5 ng/mL vs control): 4.1
Fibronectin ([13]; TGF-β2 5 ng/mL, mean±s.e.m.): 13 ± 2.7 μg/well
Fibronectin Fold Increase ([14]; TGF-β2 5 ng/mL vs control): 6.7
PAI-1 Fold Increase ([14]; TGF-β2 5 ng/mL vs control): 2.5
Fibronectin ([14]; TGF-β2 5 ng/mL, mean±s.e.m.): 10.1 ± 1.1 μg/well
PAI-1 ([14]; TGF-β2 5 ng/mL, mean±s.e.m.): 315.9 ± 9.5 ng/well
Fibronectin Fold Increase ([15]; TGF-β2 5 ng/mL vs control): 19.2
PAI-1 Fold Increase ([15]; TGF-β2 5 ng/mL vs control): 2.6
Fibronectin ([15]; TGF-β2 5 ng/mL, mean±s.e.m.): 9.6 ± 3.8 μg/well
PAI-1 ([15]; TGF-β2 5 ng/mL, mean±s.e.m.): 282.6 ± 11.6 ng/well
Fibronectin Fold Increase ([16]; TGF-β2 5 ng/mL vs control): 2.3
PAI-1 Fold Increase ([16]; TGF-β2 5 ng/mL vs control): 2.8
Fibronectin ([16]; TGF-β2 5 ng/mL, mean±s.e.m.): 8.9 ± 1.5 μg/well
PAI-1 ([16]; TGF-β2 5 ng/mL, mean±s.e.m.): 297.7 ± 23.1 ng/well
Fibronectin Fold Increase ([17]; TGF-β2 5 ng/mL vs control): 3.1
PAI-1 Fold Increase ([17]; TGF-β2 5 ng/mL vs control): 2.9
Fibronectin ([17]; TGF-β2 5 ng/mL, mean±s.e.m.): 12.2 ± 2.1 μg/well
PAI-1 ([17]; TGF-β2 5 ng/mL, mean±s.e.m.): 256.5 ± 35.4 ng/well
Fibronectin Fold Increase ([18]; TGF-β2 5 ng/mL vs control): 2.4
Fibronectin ([18]; TGF-β2 5 ng/mL, mean±s.e.m.): 19.5 ± 2^ μg/well
